According to article PMC2172684 (The Journal of Cell Biology, 2003):
Like-named read-outs stand apart in the source and are kept apart here.

B1: GST-tagged Nup153 (895–1475) (domain or fragment, UniProt P49790 895-1475, looked up)
chain: SNSAASSSFKFGVSSSSSGPSQTLTSTGNFKFGDQGGFKIGVSSDSGSINPMSEGFKFSKPIGDFKFGVSSESKPEEVKKDSKNDNFKFGLSSGLSNPVSLTPFQFGVSNLGQEEKKEELPKSSSAGFSFGTGVINSTPAPANTIVTSENKSSFNLGTIETKSASVAPFTCKTSEAKKEEMPATKGGFSFGNVEPASLPSASVFVLGRTEEKQQEPVTSTSLVFGKKADNEEPKCQPVFSFGNSEQTKDENSSKSTFSFSMTKPSEKESEQPAKATFAFGAQTSTTADQGAAKPVFSFLNNSSSSSSTPATSAGGGIFGSSTSSSNPPVATFVFGQSSNPVSSSAFGNTAESSTSQSLLFSQDSKLATTSSTGTAVTPFVFGPGASSNNTTTSGFGFGATTTSSSAGSSFVFGTGPSAPSASPAFGANQTPTFGQSQGASQPNPPGFGSISSSTALFPTGSQPAPPTFGTVSSSSQPPVFGQQPSQSAFGSGTTPNSSSAFQFGSSTTNFNFTNNSPSGVFTFGANSSTPAASAQPSGSGGFPFNQSPAAFTVGSNGKNVFSSSGTSFSGRKIKTAVRRRK
B2: importin β m-N/m-C (natural protein)
chain: MELITILEKTVSPDRLELEAAQKFLERAAVENLPTFLVELSRVLANPGNSQVARVAAGLQIKNSLTSKDPDIKAQYQQRWLAIDANARREVKNYVLQTLGTETYRPSSASQCVAGIACAEIPVNQWPELIPQLVANVTNPNSTEHMKESTLEAIGYICQDIDPEQLQDKSNEILTAIAQGMRKEEPSNNVKLAATNALLNSLEFTKANFDKESERHAIMQVVCEATQCPDTRVRVAALQNLVKIMSLYYQYMETAMGPALFARTIEAMKSDIDEVALQGIEFWSNVCDEEMDLAIEASEAAEQGRPPEHTSKFYAKGALQYLVPILTQTLTKQDENDDDDDWNPCKAAGVCLMLLATCCEDDIVPHVLPFIKEHIKNPDWRYRDAAVMAFGCILEGPEPSQLKPLVIQAMPTLIELMKDPSVVVRDTAAWTVGRICELLPEAAINDVYLAPLLQCLIEGLSAEPRVASNVCWAFSSLAEAAYEAADVADDQEEPATYCLSSSFELIVQKLLETTDRPDGHQNNLRSSAYESLMEIVKNSAKDCYPAVQKTTLVIMERLQQVLQMESHIQSTSDRIQFNDLQSLLCATLQNVLRKVQHQDALQISDVVMASLDRMFQSTAGSGGVQEDALMAVSTLVEVLGGEFLKYMEAFKPFLGIGLKNYAEYQVCLAAVGLVGDLCRALQSNIIPACDEVMQLLLENLGNENVHRSVKPQILSVFGDIALAIGGEFKKYLEVVLNTLQQASQAQVDKSDYDMVDYLNELRESCLEAYTGIVQGLKGDQENVHPDVMLVQPRVEFILSFIDHIAGDEDHTDGVVACAAGLIGDLCTAFGKDVLKLVEARPMIHELLTEGRRSKTNKAKTLATWATKELRKLKNQA
B3: importin β (304–876) F688A (domain or fragment, human, UniProt Q14974 304-876, looked up)
chain: GRPPEHTSKFYAKGALQYLVPILTQTLTKQDENDDDDDWNPCKAAGVCLMLLATCCEDDIVPHVLPFIKEHIKNPDWRYRDAAVMAFGCILEGPEPSQLKPLVIQAMPTLIELMKDPSVVVRDTAAWTVGRICELLPEAAINDVYLAPLLQCLIEGLSAEPRVASNVCWAFSSLAEAAYEAADVADDQEEPATYCLSSSFELIVQKLLETTDRPDGHQNNLRSSAYESLMEIVKNSAKDCYPAVQKTTLVIMERLQQVLQMESHIQSTSDRIQFNDLQSLLCATLQNVLRKVQHQDALQISDVVMASLLRMFQSTAGSGGVQEDALMAVSTLVEVLGGEFLKYMEAFKPFLGIGLKNYAEYQVCLAAVGLVGDLCRALQSNIIPACDEVMQLLLENLGNENVHRSVKPQILSVFGDIALAIGGEFKKYLEVVLNTLQQASQAQVDKSDYDMVDYLNELRESCLEAYTGIVQGLKGDQENVHPDVMLVQPRVEFILSFIDHIAGDEDHTDGVVACAAGLIGDLCTAFGKDVLKLVEARPMIHELLTEGRRSKTNKAKTLATWATKELRKLKNQA

How the values were obtained:
Assay in all cases: ELISA
wild-type importin β [1] = target: T1, wild-type importin β (human, UniProt Q14974 1-876)
[2] = target: importin β L612D/F688A (m-C) (human, UniProt Q14974 1-876, L612D | F688A)
[3] = target: T2, importin β I178A/F217A/Y255A/I263R (m-N) (human, UniProt Q14974 1-876, I178A | F217A | Y255A | I263R)
wild-type importin β [4] = target: T1, wild-type importin β; remark: listed apart in the source
importin β I178A = importin β I178A (human, UniProt Q14974 1-876, I178A)
importin β I178D/Y255A = importin β I178D/Y255A (human, UniProt Q14974 1-876, I178D | Y255A)
importin β F217A/Y255A = importin β F217A/Y255A (human, UniProt Q14974 1-876, F217A | Y255A)
importin β F217A = importin β F217A (human, UniProt Q14974 1-876, F217A)
importin β I178D = importin β I178D (human, UniProt Q14974 1-876, I178D)
importin β E214A = importin β E214A (human, UniProt Q14974 1-876, E214A)
importin β Y255A = importin β Y255A (human, UniProt Q14974 1-876, Y255A)
importin β I178A/E214A = importin β I178A/E214A (human, UniProt Q14974 1-876, I178A | E214A)
[5] = target: T2, importin β I178A/F217A/Y255A/I263R (m-N); remark: listed apart in the source
importin β I263R = importin β I263R (human, UniProt Q14974 1-876, I263R)
GST–RanGTP = GST–RanGTP (UniProt P62826 1-216)
[6] = target: B1

Binder: B1
Kd (wild-type importin β [1]): 1 ± 0.1 nM | Kd [2]: 1.2 ± 0.1 nM | Kd [3]: 91.3 ± 11.8 nM | Kd (wild-type importin β [4]): 1.1 ± 0.1 nM | Kd (importin β I178A): 1.1 ± 0.1 nM | Kd (importin β I178D/Y255A): 68.3 ± 9 nM | Kd (importin β F217A/Y255A): 32.4 ± 5.3 nM | Kd (importin β F217A): 2.1 ± 0.2 nM | Kd (importin β I178D): 40.1 ± 9.1 nM | Kd (importin β E214A): 1.8 ± 0.1 nM | Kd (importin β Y255A): 3.5 ± 0.3 nM | Kd (importin β I178A/E214A): 27 ± 4.1 nM | Kd [5]: 99 ± 15.2 nM | Kd (importin β I263R): 2.5 ± 0.3 nM

Binder: B2
Kd (GST–RanGTP): 4.4 nM

Binder: B3
fold decrease in affinity against importin β (304–876) [6]: ~2 fold
